Experimental data from patent US20140099668A1.

Biological target: ERK (extracellular-signal-regulated kinase; mitogen-activated protein kinase)
Experiment: cell-based or functional assay

ERK activity in the endoplasmic reticulum (phosphorylation of myelin basic protein), Cos7 cells with M1-RasV12: 60%
decrease in transformed foci formation, NIH3T3 cells transfected with H-RasV12: 50%
B1: ERK decoy protein (ER localization signal, a c-Myc epitope tag, and the ERK polyligand of SEQ ID NO:1) (designed binder, part only; not given: ER signal and c-Myc tag, not shown: small tags and cut ends)
chain, part: MPKKKPTPIQLNPAAKGRKPRDLELPAAAATGPLAPGPFGAGAYSPTAPTYSPTAPKKKGGGGAPRAPGGRRAGAGRRPRAPAKLSFFFPS
